Measured values reported in publication PMC4243253.

Tested on: N[C@@H](CC(=O)c1ccccc1NC=O)C(=O)O
Test: purified protein
Conditions: pH 7.4; 25.0 °C

BaKynB (Bacillus anthracis) showed a Km of 400 ± 50 µM, a Vmax of 0.0654 µmol/min and a kcat/Km of 126000 M⁻¹ s⁻¹.
